IntAct's records for PubMed 12646039

B1: E3 ubiquitin-protein ligase RHA2A (Arabidopsis thaliana (Mouse-ear cress)), Q9ZT50 (parent)
chain: MGLQGQLSDVSSDSIPLMLLSLLAVFINHLRSFLLRLTSKSNPNLPVDDVSIASGLANIIVLADQLSLNRLFSYRCGDGGGGGSDCVVCLSKLKEGEEVRKLECRHVFHKKCLEGWLHQFNFTCPLCRSALVSDDCVSKTQRSVGRDLISCFSLH
partner: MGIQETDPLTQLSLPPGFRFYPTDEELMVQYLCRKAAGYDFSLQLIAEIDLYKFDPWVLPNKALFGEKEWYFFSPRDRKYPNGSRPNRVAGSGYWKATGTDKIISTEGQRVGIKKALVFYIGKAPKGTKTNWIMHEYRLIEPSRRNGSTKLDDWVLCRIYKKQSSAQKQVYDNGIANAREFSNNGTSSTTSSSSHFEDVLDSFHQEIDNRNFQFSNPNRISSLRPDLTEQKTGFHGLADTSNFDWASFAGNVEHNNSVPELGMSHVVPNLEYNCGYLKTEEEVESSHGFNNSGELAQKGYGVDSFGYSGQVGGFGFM

Variants of: B1
Conditions: with nac19_arath NAC019, Q9C932

| effect of a mutation on the interaction | Variant |
| --- | --- |
| decreasing interaction | C89S |
| decreasing interaction | E103P |
